Measurements from patent publication US20140219992A1.

How the values were obtained:
[1] = target: serum-derived protein (Zucker rat); test: solid phase capture ELISA of Zucker rat skin perfusate, 2 minutes after perfusion, 10 mM Ca^2+
[2] = target: serum-derived protein (Zucker rat); test: solid phase capture ELISA of Zucker rat skin perfusate, 30 minutes after perfusion, 10 mM Ca^2+
[3] = target: serum-derived protein (Zucker rat); test: solid phase capture ELISA of Zucker rat skin perfusate, 2 minutes after perfusion, 1 mM Ca^2+
[4] = target: serum-derived protein (Zucker rat); test: solid phase capture ELISA of Zucker rat skin perfusate, 30 minutes after perfusion, 1 mM Ca^2+
[5] = target: serum-derived protein (Zucker rat); test: solid phase capture ELISA of Zucker rat skin perfusate, 60 minutes after perfusion, 10 mM Ca^2+
[6] = target: serum-derived protein (Zucker rat); test: solid phase capture ELISA of Zucker rat skin perfusate, 90 minutes after perfusion, 10 mM Ca^2+
[7] = target: serum-derived protein (Zucker rat); test: solid phase capture ELISA of Zucker rat skin perfusate, 30 minutes after start of perfusion, 1 mM Ca^2+
[8] = target: serum-derived protein (Zucker rat); test: solid phase capture ELISA of Zucker rat skin perfusate, 90 minutes after perfusion, 1 mM Ca^2+

Chain of wild-type human matrix metalloprotease 1 (hMMP-1), purified and trypsin-activated (P03956 100-469): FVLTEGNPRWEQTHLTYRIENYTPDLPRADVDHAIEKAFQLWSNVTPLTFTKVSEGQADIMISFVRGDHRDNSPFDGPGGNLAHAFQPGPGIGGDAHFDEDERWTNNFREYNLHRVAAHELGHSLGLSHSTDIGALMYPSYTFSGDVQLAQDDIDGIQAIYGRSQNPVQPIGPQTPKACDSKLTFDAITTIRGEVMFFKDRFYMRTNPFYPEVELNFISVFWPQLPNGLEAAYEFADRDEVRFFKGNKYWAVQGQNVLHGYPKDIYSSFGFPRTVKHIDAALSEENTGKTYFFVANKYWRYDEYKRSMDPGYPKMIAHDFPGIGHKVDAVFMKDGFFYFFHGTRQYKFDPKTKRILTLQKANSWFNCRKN

MMP-1 mutant GVSK (G159V/S208K), purified and trypsin-activated (from UniProt P03956 100-469) (enzyme)
percent of uncomplexed protein (of the starting concentration) [1]: 90%
percent of uncomplexed protein (of the starting concentration) [2]: 50%
percent of uncomplexed protein (of the starting concentration) [3]: 45%
uncomplexed protein as a fraction of the starting concentration (fraction of the starting concentration) [4]: < 0.1
percent of uncomplexed protein (of the starting concentration) [5]: 30%
percent of uncomplexed protein (of the starting concentration) [6]: 13%

wild-type human matrix metalloprotease 1 (hMMP-1), purified and trypsin-activated (from UniProt P03956 100-469) (enzyme)
uncomplexed protein as a fraction of the starting concentration (fraction of the starting concentration) [7]: 0.5
percent of uncomplexed protein (of the starting concentration) [3]: 90%
uncomplexed protein as a fraction of the starting concentration (fraction of the starting concentration) [8]: 0.33
